Residue numbers refer to the chain shown, from its start. “And” between values parts separate entries of the source, which are not always exact repeats. Equal values may be shown once.
What was measured:
[1] = biological target: T1, Human IL-13 (human, UniProt P35225 35-146); assay: cell-based or functional assay
[2] = biological target: T2, Human IL-17F (human, UniProt Q96PD4 31-163); assay: cell-based or functional assay
T2 sequence (looked up): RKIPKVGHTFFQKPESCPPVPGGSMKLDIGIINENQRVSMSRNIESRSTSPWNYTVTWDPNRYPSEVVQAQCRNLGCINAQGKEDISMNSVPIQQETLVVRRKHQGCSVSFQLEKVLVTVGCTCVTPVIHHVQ

[3] = biological target: T3, Human IL-17A (human, UniProt Q16552 24-155); assay: cell-based or functional assay
[4] = biological target: mixture of human IL-17A, IL-13 and albumin (human); assay: SPR, response of the human mixture against the sum of the single-analyte responses, mean of n = 3
[5] = biological target: T4, Human albumin (human, UniProt P02768 25-609); assay: SPR (Biacore T200), antibody captured on anti-human F(ab')2, analyte in solution, 25 C, 1:1 model
T4 construct: also called human serum albumin
Source text: (§1) A goat anti-human IgG, F(ab′)₂ fragment specific antibody (Jackson ImmunoResearch) was immobilised on a CM5 Sensor Chip via amine coupling chemistry to a level of approximately 5000 RU. […] Buffer blank injections were included to subtract instrument noise and drift.

[6] = biological target: T5, Cyno IL-17F (cynomolgus, UniProt G7P4V0 31-163); assay: as above
T5 construct: also called Cynomolgus IL-17F
T5 sequence: T2 sequence (looked up) with G22E, I29T, R73K, N74H, V100L, I129V
Source text: as §1

[7] = biological target: T1, Human IL-13; assay: as above
Source text: as §1

[8] = biological target: T2, Human IL-17F; assay: as above
Source text: as §1

[9] = biological target: T3, Human IL-17A; assay: as above
Source text: as §1

[10] = biological target: T6, Human IL-17AF (human, UniProt Q16552 24-155; Q96PD4 31-163); assay: as above
T6 construct: also called IL-17A/F heterodimer
Source text: as §1

[11] = biological target: T7, Cyno IL-17AF (cynomolgus, UniProt A0A2K5TTB0 24-155; G7P4V0 31-163); assay: as above
T7 construct: also called Cynomolgus IL-17AF
Source text: as §1

[12] = biological target: T8, Cyno albumin (cynomolgus, UniProt A2V9Z4 25-608); assay: as above
T8 construct: also called Cynomolgus albumin
Source text: as §1

[13] = biological target: T9, Cyno IL-17A (cynomolgus, UniProt A0A2K5TTB0 24-155); assay: as above
T9 construct: also called Cynomolgus IL-17A
Source text: as §1

[14] = biological target: T10, Cyno IL-13 (cynomolgus, UniProt Q0PW92 21-132); assay: as above
T10 construct: also called Cynomolgus IL-13
Source text: as §1

[15] = biological target: T2, Human IL-17F; assay: SPR (Biacore T200), antibody captured on anti-human F(ab')2, human IL-17F as analyte, 25 C, 1:1 model
Description: (§2) A goat anti-human IgG, F(ab′)₂ fragment specific antibody (Jackson ImmunoResearch) was immobilised on a CM5 Sensor Chip via amine coupling chemistry to a level of approximately 5000 RU. […] At the end of each cycle the surface was regenerated at a flowrate of 10 μl/min using a 60 s injection of 50 mM HCl followed by a 30 s injection of 5 mM NaOH and a final 60 s injection of 50 mM HCl. […] Buffer blank injections were included to subtract instrument noise and drift.
(§3) Kinetic parameters were determined using a 1:1 binding model using Biacore T200 Evaluation software (version 3.0).

[16] = biological target: mixture of human IL-17A, IL-13 and albumin (human); assay: SPR, response of the human mixture against the sum of the single-analyte responses
[17] = biological target: mixture of cynomolgus IL-17A, IL-13 and albumin (cynomolgus); assay: SPR, response of the cynomolgus mixture against the sum of the single-analyte responses, mean of n = 3
[18] = biological target: mixture of human IL-17A, IL-13 and albumin (human); assay: SPR, mixture of human IL-13, IL-17A and albumin injected together over captured antibody
[19] = biological target: T3, Human IL-17A; assay: SPR (Biacore T200), antibody captured on anti-human F(ab')2, human IL-17A as analyte, 25 C, 1:1 model
Description: as §2, §3

[20] = biological target: T5, Cyno IL-17F; assay: cell-based or functional assay
[21] = biological target: T2, Human IL-17F; assay: cell-based or functional assay; remark: listed apart in the source
[22] = biological target: T3, Human IL-17A; assay: cell-based or functional assay; remark: listed apart in the source
[23] = biological target: T9, Cyno IL-17A; assay: cell-based or functional assay
[24] = biological target: mixture of cynomolgus IL-17A, IL-13 and albumin (cynomolgus); assay: SPR, mixture of cynomolgus IL-13, IL-17A and albumin injected together over captured antibody
[25] = biological target: mixture of cynomolgus IL-17A, IL-13 and albumin (cynomolgus); assay: SPR, response of the cynomolgus mixture against the sum of the single-analyte responses
[26] = biological target: T1, Human IL-13; assay: cell-based or functional assay; remark: listed apart in the source
[27] = biological target: T1, Human IL-13; assay: SPR (Biacore T200), antibody captured on anti-human F(ab')2, human IL-13 as analyte, 25 C, 1:1 model
Description: as §2, §3

B1: IL-13/IL-17AF multi-specific antibody (bispecific antibody)
heavy: EVQLVESGGGLVQPGGSLRLSCAASGFTFSDYNMAWVRQAPGKGLEWVATITYEGRNTYYRDSVKGRFTISRDNAKNSLYLQMNSLRAEDTAVYYCASPPQYYEGSIYRLWFAHWGQGTLVTVSSASTKGPSVFPLAPSSKSTSGGTAALGCLVKDYFPEPVTVSWNSGALTSGVHTFPAVLQSSGLYSLSSVVTVPSSSLGTQTYICNVNHKPSNTKVDKKVEPKSCSGGGGTGGGGSEVQLLESGGGLVQPGGSLRLSCAVSGIDLSNYAINWVRQAPGKCLEWIGIIWASGTTFYATWAKGRFTISRDNSKNTVYLQMNSLRAEDTAVYYCARTVPGYSTAPYFDLWGQGTLVTVSSGGGGSGGGGSGGGGSGGGGSDIQMTQSPSSVSASVGDRVTITCQSSPSVWSNFLSWYQQKPGKAPKLLIYEASKLTSGVPSRFSGSGSGTDFTLTISSLQPEDFATYYCGGGYSSISDTTFGCGTKVEIKRT
light: AIQLTQSPSSLSASVGDRVTITCRADESVRTLMHWYQQKPGKAPKLLIYLVSNSEIGVPDRFSGSGSGTDFRLTISSLQPEDFATYYCQQTWSDPWTFGQGTKVEIKRTVAAPSVFIFPPSDEQLKSGTASVVCLLNNFYPREAKVQWKVDNALQSGNSQESVTEQDSKDSTYSLSSTLTLSKADYEKHKVYACEVTHQGLSSPVTKSFNRGECSGGGGSGGGGSEVQLVQSGAEVKKPGSSVKVSCKASGYSFTSYYIHWVRQAPGQCLEWMGRIGPGSGDINYNEKFKGRATFTVDKSTSTAYMELSSLRSEDTAVYYCARFHYDGADWGQGTLVTVSSGGGGSGGGGSGGGGSGGGGSDIQMTQSPSSLSASVGDRVTITCKASQNINENLDWYQQKPGKAPKLLIYYTDILQTGIPSRFSGSGSGTDYTLTISSLQPEDFATYYCYQYYSGYTFGCGTKLEIKRT
notes: also called UCBXXXX; IL-17AF-IL-13 multi-specific antibody
Q: How did the “inhibition of CXCL1 release from NHEK treated with a mixture of IL-13, IL-17A and IL-17F” value (from here on “inhibition of CXCL1 release”) [1] turn out when B1 was run?
A: 81.3%

Q: What about the “inhibition of CXCL1 release” value [2] of the same binder?
A: 81.3%

Q: And the “inhibition of CXCL1 release” value [3]?
A: 81.3%

Q: And the Binding of Mixture as a Percentage of Individual Binding Responses (%), Mean [4]?
A: 100%

Q: And the Kd [5]?
A: 2510 pM

Q: And the koff [5]?
A: 0.000154 s⁻¹

Q: And the kon [5]?
A: 66500 M⁻¹ s⁻¹

Q: And the Kd [6]?
A: 283 pM

Q: What about the koff [6] of the same binder?
A: 0.000282 s⁻¹

Q: What about the kon [6] of the same binder?
A: 1.14e+06 M⁻¹ s⁻¹

Q: And the Kd [7]?
A: 26 pM

Q: What about the koff [7] of the same binder?
A: 3.84e-05 s⁻¹

Q: What about the kon [7] of the same binder?
A: 1.46e+06 M⁻¹ s⁻¹

Q: What about the Kd [8] of the same binder?
A: 128 pM

Q: What about the koff [8] of the same binder?
A: 0.000198 s⁻¹

Q: What about the kon [8] of the same binder?
A: 1.67e+06 M⁻¹ s⁻¹

Q: What about the Kd [9] of the same binder?
A: 9 pM

Q: And the koff [9]?
A: 1.57e-05 s⁻¹

Q: And the kon [9]?
A: 2.26e+06 M⁻¹ s⁻¹

Q: What about the Kd [10] of the same binder?
A: 15 pM

Q: And the koff [10]?
A: 4.54e-05 s⁻¹

Q: What about the kon [10] of the same binder?
A: 3.7e+06 M⁻¹ s⁻¹

Q: And the Kd [11]?
A: 14 pM

Q: And the koff [11]?
A: 2.87e-05 s⁻¹

Q: What about the kon [11] of the same binder?
A: 2.25e+06 M⁻¹ s⁻¹

Q: What about the Kd [12] of the same binder?
A: 2470 pM

Q: What about the koff [12] of the same binder?
A: 0.000204 s⁻¹

Q: And the kon [12]?
A: 81800 M⁻¹ s⁻¹

Q: What about the Kd [13] of the same binder?
A: 7 pM

Q: What about the koff [13] of the same binder?
A: 1.24e-05 s⁻¹

Q: And the kon [13]?
A: 1.65e+06 M⁻¹ s⁻¹

Q: What about the Kd [14] of the same binder?
A: 156 pM

Q: And the koff [14]?
A: 0.000148 s⁻¹

Q: What about the kon [14] of the same binder?
A: 948000 M⁻¹ s⁻¹

Q: And the Kd [15]?
A: 82.1 pM

Q: What about the koff [15] of the same binder?
A: 0.000219 s⁻¹

Q: What about the kon [15] of the same binder?
A: 2.66e+06 M⁻¹ s⁻¹

Q: What about the Binding of Mixture as a Percentage of Individual Binding Responses (%), n = 1 [16] of the same binder?
A: 100%

Q: What about the Binding of Mixture as a Percentage of Individual Binding Responses (%), n = 2 [16] of the same binder?
A: 100%

Q: What about the Binding of Mixture as a Percentage of Individual Binding Responses (%), n = 3 [16] of the same binder?
A: 100%

Q: And the Binding of Mixture as a Percentage of Individual Binding Responses (%), Mean [17]?
A: 97%

Q: What about the Binding, n = 1 (RU) [18] of the same binder?
A: 81 RU

Q: And the Binding, n = 2 (RU) [18]?
A: 131 RU

Q: What about the Binding, n = 3 (RU) [18] of the same binder?
A: 129 RU

Q: What about the Kd [19] of the same binder?
A: 8.2 pM

Q: What about the koff [19] of the same binder?
A: 3.45e-05 s⁻¹

Q: What about the kon [19] of the same binder?
A: 3.2e+06 M⁻¹ s⁻¹

Q: What about the “IC50, inhibition of IL-6 release from nHDF stimulated with IL-17F and TNF-α” value [20] of the same binder?
A: 34300 pM

Q: And the “IC50, inhibition of IL-6 release from nHDF stimulated with IL-17F and TNF-α” value [21]?
A: 28000 pM

Q: What about the “IC50, inhibition of IL-6 release from nHDF stimulated with IL-17A and TNF-α” value [22] of the same binder?
A: 42 pM

Q: And the “IC50, inhibition of IL-6 release from nHDF stimulated with IL-17A and TNF-α” value [23]?
A: 49 pM

Q: And the Binding, n = 1 (RU) [24]?
A: 146 RU

Q: And the Binding, n = 2 (RU) [24]?
A: 141 RU

Q: And the Binding, n = 3 (RU) [24]?
A: 145 RU

Q: What about the Binding of Mixture as a Percentage of Individual Binding Responses (%), n = 1 [25] of the same binder?
A: 97%

Q: And the Binding of Mixture as a Percentage of Individual Binding Responses (%), n = 2 [25]?
A: 96%

Q: What about the Binding of Mixture as a Percentage of Individual Binding Responses (%), n = 3 [25] of the same binder?
A: 97%

Q: And the “IC50 for inhibition of STAT6 signalling (HEK 293 Human IL4/IL-13 SEAP reporter cells)” value [26]?
A: 4.12 pM and 0.412 ng/ml

Q: And the Kd [27]?
A: 25.8 pM

Q: What about the koff [27] of the same binder?
A: 0.000111 s⁻¹

Q: And the kon [27]?
A: 3.61e+06 M⁻¹ s⁻¹
